Laboratory results reported in US6121020, “Hepatitis C E1 and E2 polypeptides and methods of obtaining the same” (Chiron Corporation, dated 2000).

Molecular target: probable NS4B (27 kDa), expressed from pTM1-NS25 (hepatitis C virus, UniProt P26664)
Experiment: co-immunoprecipitation with anti-E2 antibody from lysates of cells co-transfected with pTM1-NS25

B1: E2 species encoded by the template terminating at amino acid 699 (other)
chain: ETHVTGGSAGHTVSGFVSLLAPGAKQNVQLINTNGSWHLNSTALNCNDSLNTGWLAGLFYHHKFNSSGCPERLASCRPLTDFDQGWGPISYANGSGPDQRPYCWHYPPKPCGIVPAKSVCGPVYCFTPSPVVVGTTDRSGAPTYSWGENDTDVFVLNNTRPPLGNWFGCTWMNSTGFTKVCGAPPCVIGGAGNNTLHCPTDCFRKHPDATYSRCGSGPWITPRCLVDYPYRLWHYPCTINYTIFKIRMYVGGVEHRLEAACNWTRGERCDLEDRDRSELSPLLLTTTQWQVLPCSFTTLPALSTGLIHLHQNIVDV
- binding result: no binding
